According to patent US20020164732A1:

Key:
[1] = molecular target: HsdR subunit encoded by the chromosome of the IL1403 strain (L. lactis ssp lactis (strain IL1403)); experiment: cell-based or functional assay
[2] = molecular target: HsdM subunit encoded by the chromosome of the IL1403 strain (L. lactis ssp lactis (strain IL1403)); experiment: cell-based or functional assay
Chain of HsdM subunit encoded by the chromosome of the IL1403 strain (L. lactis ssp lactis (strain IL1403)) (chain, as listed by the source limits assumed): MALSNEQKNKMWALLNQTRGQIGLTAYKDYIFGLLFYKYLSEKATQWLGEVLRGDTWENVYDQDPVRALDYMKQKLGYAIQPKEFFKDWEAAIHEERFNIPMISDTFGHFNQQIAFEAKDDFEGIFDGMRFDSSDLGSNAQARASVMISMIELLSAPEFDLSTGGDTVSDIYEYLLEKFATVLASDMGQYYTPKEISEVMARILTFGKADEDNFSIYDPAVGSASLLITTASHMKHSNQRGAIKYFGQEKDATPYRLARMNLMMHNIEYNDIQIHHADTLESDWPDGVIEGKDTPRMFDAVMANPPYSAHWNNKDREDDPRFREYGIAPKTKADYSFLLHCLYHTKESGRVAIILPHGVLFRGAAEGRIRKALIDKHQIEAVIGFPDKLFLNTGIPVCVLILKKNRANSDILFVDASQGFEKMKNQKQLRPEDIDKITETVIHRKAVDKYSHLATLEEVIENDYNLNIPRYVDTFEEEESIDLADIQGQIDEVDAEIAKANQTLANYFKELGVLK

Chain of HsdR subunit encoded by the chromosome of the IL1403 strain (L. lactis ssp lactis (strain IL1403)) (chain, as listed by the source limits assumed): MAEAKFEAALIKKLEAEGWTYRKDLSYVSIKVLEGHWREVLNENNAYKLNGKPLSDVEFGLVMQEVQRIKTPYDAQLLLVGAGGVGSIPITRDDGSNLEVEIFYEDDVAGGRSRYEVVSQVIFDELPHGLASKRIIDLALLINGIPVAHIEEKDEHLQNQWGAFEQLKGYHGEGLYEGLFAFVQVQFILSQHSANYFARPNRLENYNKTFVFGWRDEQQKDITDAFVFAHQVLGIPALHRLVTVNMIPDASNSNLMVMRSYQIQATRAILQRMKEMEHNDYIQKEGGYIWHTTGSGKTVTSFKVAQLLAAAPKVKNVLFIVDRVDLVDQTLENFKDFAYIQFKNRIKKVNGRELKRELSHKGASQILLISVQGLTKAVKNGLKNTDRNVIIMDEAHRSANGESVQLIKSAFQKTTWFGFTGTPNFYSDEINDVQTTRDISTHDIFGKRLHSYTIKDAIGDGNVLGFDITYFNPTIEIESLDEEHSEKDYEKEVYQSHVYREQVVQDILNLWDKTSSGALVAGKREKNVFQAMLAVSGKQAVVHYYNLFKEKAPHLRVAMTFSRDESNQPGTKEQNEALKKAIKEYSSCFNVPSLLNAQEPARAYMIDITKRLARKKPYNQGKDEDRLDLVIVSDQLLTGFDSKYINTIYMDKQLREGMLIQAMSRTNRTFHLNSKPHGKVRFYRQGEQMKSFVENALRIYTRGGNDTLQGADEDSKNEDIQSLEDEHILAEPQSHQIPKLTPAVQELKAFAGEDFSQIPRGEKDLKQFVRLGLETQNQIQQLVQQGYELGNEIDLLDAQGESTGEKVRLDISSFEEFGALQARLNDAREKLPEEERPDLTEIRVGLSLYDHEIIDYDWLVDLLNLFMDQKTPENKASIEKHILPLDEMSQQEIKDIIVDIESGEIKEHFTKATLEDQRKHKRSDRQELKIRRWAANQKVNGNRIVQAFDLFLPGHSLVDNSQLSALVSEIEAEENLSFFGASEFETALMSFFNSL

EOP (efficacy of propagation) of bIL67 phage on IL1403 transformed with pIL261, against IL1403 without plasmids [1]	EOP (efficacy of propagation) of bIL67 phage on IL1403 transformed with pIL261, against IL1403 without plasmids [2]	EOP (efficacy of propagation) of bIL67 phage on IL1403 transformed with pIL7, against IL1403 without plasmids [1]	EOP (efficacy of propagation) of bIL67 phage on IL1403 transformed with pIL7, against IL1403 without plasmids [2]	Substance
6e-07	6e-07			HsdS subunit encoded by the pIL261 plasmid (orf2 of the 3.7 kb EcoRI insert from pIL103)
		0.006	0.006	HsdS subunit encoded by the pIL7 plasmid
